What was measured:
[1] = biological target: high-affinity oncomodulin receptor on retinal ganglion cells (RGCs) (rat); assay: displacement of AP-OM (40 nM, equilibrium binding) from RGCs by unlabeled oncomodulin
[2] = biological target: high-affinity oncomodulin receptor on retinal ganglion cells (RGCs) (rat); assay: cell-based or functional assay
[3] = biological target: high-affinity oncomodulin receptor on retinal ganglion cells (RGCs) (rat); assay: AP-OM binding to lightly fixed, forskolin-treated immunopurified rat RGCs; saturation curve and Scatchard plot
[4] = biological target: high-affinity oncomodulin receptor on retinal ganglion cells (RGCs) (rat); assay: AP-OM binding to lightly fixed, forskolin-treated immunopurified rat RGCs; saturation curve

IC50 [1] [nM]	effective concentration for half-maximum response (EC50) of axon outgrowth from RGCs [2] [nM]	Kd [3] [nM]	concentration at which binding saturated [4] [nM]	Substance
30	3.8			recombinant rat oncomodulin (from UniProt P02631 2-109) (ligand)
		28	> 100	alkaline phosphatase (AP)-oncomodulin fusion protein (from UniProt P02631 1-109) (ligand)

From patent publication US20090156496A1, “METHODS AND COMPOSITIONS FOR TREATING AND PREVENTING PERIPHERAL NERVE DAMAGE” (CHILDREN'S MEDICAL CENTER CORPORATION, INC., priority 2006, published 2009)
